The values that follow are results of earlier work, collected in publication PMC4965862.

For the data set, the target named is Cys45 (UniProt position 45, AFTGICQGELD). To be noted: reduced enzyme (Cys45 thiol/thiolate).

Consider “Alkyl hydroperoxide reductase E (AhpE), one-cysteine peroxiredoxin (Mycobacterium tuberculosis)”, for which the pKa is recorded as 5.2.
